Data reported in patent publication US20080090254.

B1: IGF-1Receptor Kinase (protein)
chain: RKRNNSRLGNGVLYASVNPEYFSAADVYVPDEWEVAREKITMSRELGQGSFGMVYEGVAKGVVKDEPETRVAIKTVNEAASMRERIEFLNEASVMKEFNCHHVVRLLGVVSQGQPTLVIMELMTRGDLKSYLRSLRPEMENNPVLAPPSLSKMIQMAGEIADGMAYLNANKFVHRDLAARNCMVAEDFTVKIGDFGMTRDIYETDYYRKGGKGLLPVRWMSPESLKDGVFTTYSDVWSFGVVLWEIATLAEQPYQGLSNEQVLRFVMEGGLLDKPDNCPDMLFELMRMCWQYNPKMRPSFLEIISSIKEEMEPGFREVSFYYSEENKLPEPEELDLEPENMESVPLDPSASSSSLPLPDRHSGHKAENGPGPGVLVLRASFDERQPYAHMNGGRKNERALPLPQSSTC
B2: ErbB4 Kinase (protein)
chain: RRKSIKKKRALRRFLETELVEPLTPSGTAPNQAQLRILKETELKRVKVLGSGAFGTVYKGIWVPEGETVKIPVAIKILNETTGPKANVEFMDEALIMASMDHPHLVRLLGVCLSPTIQLVTQLMPHGCLLEYVHEHKDNIGSQLLLNWCVQIAKGMMYLEERRLVHRDLAARNVLVKSPNHVKITDFGLARLLEGDEKEYNADGGKMPIKWMALECIHYRKFTHQSDVWSYGVTIWELMTFGGKPYDGIPTREIPDLLEKGERLPQPPICTIDVYMVMVKCWMIDADSRPKFKELAAEFSRMARDPQRYLVIQGDDRMKLPSPNDSKFFQNLLDEEDLEDMMDAEEYLVPQAFNIPPPIYTSRARIDSNRSEIGHSPPPAYTPMSGNQFVYRDGGFAAEQGVSVPYRAPTSTIPEAPVAQGATAEIFDDSCCNGTLRKPVAPHVQEDSSTQRYSADPTVFAPERSPRGELDEEGYMTPMRDKPKQEYLNPVEENPFVSRRKNGDLQALDNPEYHNASNGPPKAEDEYVNEPLYLNTFANTLGKAEYLKNNILSMPEKAKKAFDNPDYWNHSLPPRSTLQHPDYLQEYSTKYFYKQNGRIRPIVAENPEYLSEFSLKPGTVLPPPPYRHRNTVV
B3: PDGF Receptor β Kinase (protein)
chain: RYEIRWKVIESVSSDGHEYIYVDPMQLPYDSTWELPRDQLVLGRTLGSGAFGQVVEATAHGLSHSQATMKVAVKMLKSTARSSEKQALMSELKIMSHLGPHLNVVNLLGACTKGGPIYIITEYCRYGDLVDYLHRNKHTFLQHHSDKRRPPSAELYSNALPVGLPLPSHVSLTGESDGGYMDMSKDESVDYVPMLDMKGDVKYADIESSNYMAPYDNYVPSAPERTCRATLINESPVLSYMDLVGFSYQVANGMEFLASKNCVHRDLAARNVLICEGKLVKICDFGLARDIMRDSNYISKGSTFLPLKWMAPESIFNSLYTTLSDVWSFGILLWEIFTLGGTPYPELPMNEQFYNAIKRGYRMAQPAHASDEIYEIMQKCWEEKFEIRPPFSQLVLLLERLLGEGYKKKYQQVDEEFLRSDHPAILRSQARLPGFHGLRSPLDTSSVLYTAVQPNEGDNDYIIPLPDPKPEVADEGPLEGSPSLASSTLNEVNTSSTISCDSPLEPQDEPEPEPQLELQVEPEPELEQLPDSGCPAPRAEAEDSFL
B4: VEGF Receptor 1 Kinase (protein)
chain: RKMKRSSSEIKTDYLSIIMDPDEVPLDEQCERLPYDASKWEFARERLKLGKSLGRGAFGKVVQASAFGIKKSPTCRTVAVKMLKEGATASEYKALMTELKILTHIGHHLNVVNLLGACTKQGGPLMVIVEYCKYGNLSNYLKSKRDLFFLNKDAALHMEPKKEKMEPGLEQGKKPRLDSVTSSESFASSGFQEDKSLSDVEEEEDSDGFYKEPITMEDLISYSFQVARGMEFLSSRKCIHRDLAARNILLSENNVVKICDFGLARDIYKNPDYVRKGDTRLPLKWMAPESIFDKIYSTKSDVWSYGVLLWEIFSLGGSPYPGVQMDEDFCSRLREGMRMRAPEYSTPEIYQIMLDCWHRDPKERPRFAELVEKLGDLLQANVQQDGKDYIPINAILTGNSGFTYSTPAFSEDFFKESISAPKFNSGSSDDVRYVNAFKFMSLERIKTFEELLPNATSMFDDYQGDSSTLLASPMLKRFTWTDSKPKASLKIDLRVTSKSKESGLSDVSRPSFCHSSCGHVSEGKRRFTYDHAELERKIACCSPPPDYNSVVLYSTPPI

The proteins below were run against GST-poly(Glu, Tyr) substrate.
GST-poly(Glu, Tyr) substrate, sequence (chain, as listed by the source): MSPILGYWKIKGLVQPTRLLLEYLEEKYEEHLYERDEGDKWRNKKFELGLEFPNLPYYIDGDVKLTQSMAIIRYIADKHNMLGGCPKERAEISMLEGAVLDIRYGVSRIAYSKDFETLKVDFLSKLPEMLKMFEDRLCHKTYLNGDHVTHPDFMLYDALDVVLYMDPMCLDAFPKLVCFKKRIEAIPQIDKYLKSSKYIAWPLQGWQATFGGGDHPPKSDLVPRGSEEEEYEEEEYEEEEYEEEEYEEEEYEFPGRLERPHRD
With B1 the “phosphorylation of the substrate, Western blotting with anti-phosphotyrosine” value (from here on “phosphorylation of the substrate”) was “At + of all (i to vii) of FIG. 1, a single band was seen at positions where the phosphorylated GST-poly (Glu, Tyr) substrate appears”. For B2, the “phosphorylation of the substrate” value was “At + of all (i to vii) of FIG. 1, a single band was seen at positions where the phosphorylated GST-poly (Glu, Tyr) substrate appears”. With B3 the “phosphorylation of the substrate” value was “At + of all (i to vii) of FIG. 1, a single band was seen at positions where the phosphorylated GST-poly (Glu, Tyr) substrate appears”. In the case of B4, the “phosphorylation of the substrate” value is reported as “At + of all (i to vii) of FIG. 1, a single band was seen at positions where the phosphorylated GST-poly (Glu, Tyr) substrate appears”.
